Target: CaCl2-washed photosystem II complex (T. elongatus | T. elongatus (endogenous)) (UniProt Q8DIF8)
Experiment: native gel or EMSA

- stoichiometry N: 2
Substance: CaCl2-washed photosystem II complex (from UniProt Q8DIF8 1-461; P0A444 1-344; Q8DIQ1 1-510)
